Among the data in patent US20250011363A1, “OPTIMIZED SHORTENED PEPTIDE THAT BINDS TO ACETYLCHOLINE RECEPTOR, AND USE THEREOF” (SKINMED CO., LTD., priority 2021, published 2025) are Binding affinity values, retold here.

This test concerns the target acetylcholine receptor (Homo sapiens, UniProt P02708). Nature of the test: SPR binding affinity (RU) of optimized 5mer/6mer/7mer peptides, Examples 6-7. The settings on record: SPR, peptides tested at 10 μM. Summed up:
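Single-concentration screen: 10 μM peptide, SPR detection, binding expressed as RU.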
A general note: SPR reads the build-up and loss of mass on a sensor chip optically.

Where [1] appears, read: 6mer-1 Bottom sequence (Table 11).
Setting [2] is: Resonance Units, 6mer-1 Bottom sequence.

Chain of acetylcholine receptor (P02708 21-457): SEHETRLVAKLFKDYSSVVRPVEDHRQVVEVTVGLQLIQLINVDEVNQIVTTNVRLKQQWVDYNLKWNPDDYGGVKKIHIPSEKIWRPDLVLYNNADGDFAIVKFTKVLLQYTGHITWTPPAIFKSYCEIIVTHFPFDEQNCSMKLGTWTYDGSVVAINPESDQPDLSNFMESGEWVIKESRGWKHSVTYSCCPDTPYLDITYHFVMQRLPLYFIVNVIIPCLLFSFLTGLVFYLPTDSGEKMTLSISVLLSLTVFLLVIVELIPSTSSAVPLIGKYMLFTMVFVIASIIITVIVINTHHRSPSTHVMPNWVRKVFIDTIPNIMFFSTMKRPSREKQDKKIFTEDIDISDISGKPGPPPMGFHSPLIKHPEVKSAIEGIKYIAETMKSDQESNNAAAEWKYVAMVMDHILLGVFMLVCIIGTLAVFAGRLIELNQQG

As to 6mer-1-927 (KRESHR), the Binding affinity under setting [1] was determined as 37 Ru.

Turning to 6mer-1-928 (KRYCPK), the Binding affinity under setting [1] is 30 Ru.

Take 6mer-1-929 (RRCDHK): under setting [1], the Binding affinity was found to be 25 Ru.

As for 6mer-1-930 (KKESNK), the Binding affinity under setting [1] is 43 Ru.

On to 6mer-1-931 (KKNWPR), for which the Binding affinity under setting [1] is given as 35 Ru.

6mer-1-932 (KRFEFK): the Binding affinity under setting [1] turned out to be 38 Ru.

Regarding 6mer-1-933 (RRPWNR), the Binding affinity under setting [1] is listed as 28 Ru.

For 6mer-1-934 (KRPPGK), the Binding affinity under setting [1] came out at 39 Ru.

As for 6mer-1-935 (RKKDIK), the Binding affinity under setting [1] is 40 Ru.

Turning to 6mer-1-936 (RKETDR), under setting [1], the Binding affinity came out at 36 Ru.

Turning to 6mer-1-937 (RKPTNR), under setting [1], the Binding affinity worked out at 34 Ru.

For the substance 6mer-1-938 (KKIAWK), the Binding affinity under setting [1] turned out to be 28 Ru.

Regarding 6mer-1-939 (KRNDFK), under setting [1], the Binding affinity was 41 Ru.

Take 6mer-1-940 (RKPEDR): under setting [1], the Binding affinity amounted to 29 Ru.

Regarding 6mer-1-941 (RKTPKK), the Binding affinity under setting [1] was 29 Ru.

As to 6mer-1-942 (RRMMVR), the Binding affinity under setting [1] turned out to be 37 Ru.

For 6mer-1-943 (KKEHDK), the Binding affinity under setting [1] worked out at 43 Ru.

6mer-1-944 (RKPAGK): the Binding affinity under setting [1] is 25 Ru.

For the substance 6mer-1-945 (RKTSIK), the Binding affinity under setting [1] amounted to 31 Ru.

Regarding 6mer-1-946 (RRCEPR), the Binding affinity under setting [1] was 31 Ru.

With 6mer-1-947 (KRTKGR), the Binding affinity under setting [1] turned out to be 31 Ru.

As to 6mer-1-948 (RKFTVR), under setting [1], the Binding affinity is 24 Ru.

Consider 6mer-1-949 (RKEMPR), for which the Binding affinity under setting [1] was 37 Ru.

As for 6mer-1-950 (RKEDKR), the Binding affinity under setting [1] was 29 Ru.

Take 6mer-1-951 (RKAMDK): the Binding affinity under setting [1] stood at 29 Ru.

Take 6mer-1-952 (KRHDKK): the Binding affinity under setting [1] turned out to be 28 Ru.

On to 6mer-1-953 (KRTNGK), for which the Binding affinity under setting [1] was found to be 26 Ru.

As to 6mer-1-954 (KKAKGR), under setting [1], the Binding affinity is reported as 41 Ru.

In the case of 6mer-1-955 (RKECFK), the Binding affinity under setting [1] was 23 Ru.

For 6mer-1-956 (KRKSNK), the Binding affinity under setting [1] amounted to 34 Ru.

Consider 6mer-1-957 (KKPPDK), for which the Binding affinity under setting [1] is reported as 43 Ru.

In the case of 6mer-1-958 (KRYAGR), under setting [1], the Binding affinity came out at 43 Ru.

As to 6mer-1-959 (KKIWFR), the Binding affinity under setting [1] was 36 Ru.

Take 6mer-1-960 (KKCPFR): the Binding affinity under setting [1] is listed as 34 Ru.

For 6mer-1-961 (RRTWAR), the Binding affinity under setting [1] came to 122 Ru.

6mer-1-962 (KKNCDK): the Binding affinity under setting [1] worked out at 42 Ru.

Regarding 6mer-1-963 (RREEDK), the Binding affinity under setting [1] was determined as 29 Ru.

For 6mer-1-964 (RKFKNK), under setting [1], the Binding affinity was 42 Ru.

As for 6mer-1-965 (KRIWDK), under setting [1], the Binding affinity was 36 Ru.

Regarding 6mer-1-966 (RRNSWK), the Binding affinity under setting [1] was 22 Ru.

Regarding 6mer-1-967 (RRTEDR), the Binding affinity under setting [1] is 24 Ru.

As to 6mer-1-968 (RREDFR), the Binding affinity under setting [1] was found to be 39 Ru.

In the case of 6mer-1-969 (RKDHWR), under setting [1], the Binding affinity was found to be 33 Ru.

As for 6mer-1-970 (RRCCAR), under setting [1], the Binding affinity is reported as 38 Ru.

Turning to 6mer-1-971 (RKIEMK), the Binding affinity under setting [1] was determined as 32 Ru.

Turning to 6mer-1-972 (RRHTHK), the Binding affinity under setting [1] was found to be 43 Ru.

Take 6mer-1-973 (RRDHVK): the Binding affinity under setting [1] is 25 Ru.

On to 6mer-1-974 (RKPAHK), for which, under setting [1], the Binding affinity came out at 27 Ru.

On to 6mer-1-975 (RKASIK), for which the Binding affinity under setting [1] turned out to be 22 Ru.

In the case of 6mer-1-976 (RKEMIK), the Binding affinity under setting [1] amounted to 40 Ru.

As to 6mer-1-977 (RRPCFR), under setting [1], the Binding affinity is recorded as 43 Ru.

As for 6mer-1-978 (RRKSHK), the Binding affinity under setting [1] is 43 Ru.

Turning to 6mer-1-979 (RRYWEK), the Binding affinity under setting [1] is 42 Ru.

Turning to 6mer-1-980 (RKICAK), the Binding affinity under setting [1] is given as 33 Ru.

In the case of 6mer-1-981 (RKDDKK), under setting [1], the Binding affinity is 27 Ru.

For the substance 6mer-1-982 (KRCPDR), the Binding affinity under setting [1] is 35 Ru.

For 6mer-1-983 (KRPHKK), the Binding affinity under setting [1] is 38 Ru.

Turning to 6mer-1-984 (KKESDK), the Binding affinity under setting [1] worked out at 33 Ru.

For the substance 6mer-1-985 (KRKSER), the Binding affinity under setting [1] worked out at 22 Ru.

As to 6mer-1-986 (KKAEEK), the Binding affinity under setting [1] is on record as 22 Ru.

Consider 6mer-1-987 (RRTEFK), for which the Binding affinity under setting [1] is recorded as 34 Ru.

6mer-1-988 (KRYPDR): the Binding affinity under setting [1] is on record as 24 Ru.

On to 6mer-1-989 (KRATVR), for which, under setting [1], the Binding affinity is 27 Ru.

For the substance 6mer-1-990 (RRFTER), the Binding affinity under setting [1] is 40 Ru.

For 6mer-1-991 (RKAHDK), the Binding affinity under setting [1] turned out to be 25 Ru.

Regarding 6mer-1-992 (RRCTAK), under setting [1], the Binding affinity was 28 Ru.

For the substance 6mer-1-993 (KRAHDK), the Binding affinity under setting [1] is 26 Ru.

With 6mer-1-994 (KKHEFR), the Binding affinity under setting [1] is given as 37 Ru.

Take 6mer-1-995 (KRCHHR): the Binding affinity under setting [1] is listed as 33 Ru.

With 6mer-1-996 (RRPPWK), the Binding affinity under setting [1] is on record as 39 Ru.

6mer-1-997 (KKPTFR): the Binding affinity under setting [1] turned out to be 35 Ru.

6mer-1-998 (KRNPVK): under setting [2], the Binding affinity came to 41 Ru.

As to 6mer-1-999 (RKATNR), under setting [2], the Binding affinity was 24 Ru.

Take 6mer-1-1000 (RKMSHR): the Binding affinity under setting [2] is listed as 28 Ru.

As to 6mer-1-1002 (KRIHMK), the Binding affinity under setting [2] turned out to be 29 Ru.

6mer-1-1003 (RKYCHR): under setting [2], the Binding affinity turned out to be 24 Ru.

For the substance 6mer-1-1004 (RKHSHR), under setting [2], the Binding affinity came out at 41 Ru.

On to 6mer-1-1005 (RKPPDR), for which, under setting [2], the Binding affinity was determined as 26 Ru.

In the case of 6mer-1-1006 (KKDKIK), the Binding affinity under setting [2] was 25 Ru.

Take 6mer-1-1007 (RKPTDR): the Binding affinity under setting [2] is 39 Ru.

For 6mer-1-1008 (RKPWAR), the Binding affinity under setting [2] came to 21 Ru.

For the substance 6mer-1-1009 (RKMSKK), the Binding affinity under setting [2] is reported as 29 Ru.

In the case of 6mer-1-1010 (KKPKHK), the Binding affinity under setting [2] is recorded as 33 Ru.

Turning to 6mer-1-1011 (RKKPEK), under setting [2], the Binding affinity worked out at 35 Ru.

Turning to 6mer-1-1012 (RRAWVR), the Binding affinity under setting [2] turned out to be 35 Ru.

On to 6mer-1-1013 (KKTTNK), for which the Binding affinity under setting [2] came out at 29 Ru.

For the substance 6mer-1-1014 (KKNAWR), under setting [2], the Binding affinity was 25 Ru.

Regarding 6mer-1-1015 (KREEWR), the Binding affinity under setting [2] was found to be 26 Ru.

Take 6mer-1-1016 (KRHTHR): the Binding affinity under setting [2] came to 21 Ru.

Consider 6mer-1-1017 (KRANMK), for which, under setting [2], the Binding affinity was 37 Ru.

Regarding 6mer-1-1018 (KKTAFK), the Binding affinity under setting [2] turned out to be 28 Ru.

In the case of 6mer-1-1019 (KRDAWR), the Binding affinity under setting [2] was 37 Ru.

With 6mer-1-1020 (KKMEAK), the Binding affinity under setting [2] is 38 Ru.

Consider 6mer-1-1021 (KKHDIK), for which the Binding affinity under setting [2] turned out to be 41 Ru.

On to 6mer-1-1022 (RKDTVR), for which, under setting [2], the Binding affinity came to 22 Ru.

On to 6mer-1-1023 (KRIMHK), for which, under setting [2], the Binding affinity is 39 Ru.

As to 6mer-1-1024 (RKTEIR), under setting [2], the Binding affinity is 36 Ru.

For 6mer-1-1025 (KRFAKR), the Binding affinity under setting [2] worked out at 33 Ru.

For 6mer-1-1026 (RKKCER), the Binding affinity under setting [2] was 30 Ru.

Consider 6mer-1-1027 (KKPWHK), for which the Binding affinity under setting [2] is on record as 22 Ru.

Turning to 6mer-1-1028 (RRHCWR), under setting [2], the Binding affinity is on record as 36 Ru.

Regarding 6mer-1-1029 (RRCMAK), the Binding affinity under setting [2] came to 40 Ru.

Turning to 6mer-1-1030 (KKFCFR), the Binding affinity under setting [2] was 30 Ru.

As for 6mer-1-1031 (RKDTHK), the Binding affinity under setting [2] came out at 38 Ru.

As for 6mer-1-1032 (KKTSMR), the Binding affinity under setting [2] is recorded as 27 Ru.

For 6mer-1-1033 (KRHMVK), the Binding affinity under setting [2] was 30 Ru.

As for 6mer-1-1034 (KKASDR), the Binding affinity under setting [2] worked out at 24 Ru.

On to 6mer-1-1035 (RRCHHR), for which the Binding affinity under setting [2] came to 34 Ru.

Consider 6mer-1-1036 (KKITFR), for which, under setting [2], the Binding affinity came to 21 Ru.

6mer-1-1037 (RRKNNR): the Binding affinity under setting [2] is given as 36 Ru.

As to 6mer-1-1038 (RRKKIR), the Binding affinity under setting [2] was determined as 21 Ru.

For 6mer-1-1039 (KRADIK), under setting [2], the Binding affinity is 40 Ru.

On to 6mer-1-1040 (KRIEFR), for which, under setting [2], the Binding affinity turned out to be 28 Ru.

On to 6mer-1-1041 (RKEHGK), for which the Binding affinity under setting [2] came out at 23 Ru.

Regarding 6mer-1-1042 (KKITAR), under setting [2], the Binding affinity was 40 Ru.

As for 6mer-1-1043 (KRAAHR), the Binding affinity under setting [2] is 30 Ru.

Turning to 6mer-1-1044 (KKHHIR), the Binding affinity under setting [2] came out at 24 Ru.

Take 6mer-1-1045 (KKTPGR): under setting [2], the Binding affinity was 27 Ru.

Take 6mer-1-1046 (RKDPHR): the Binding affinity under setting [2] is given as 38 Ru.

For 6mer-1-1047 (RKATDK), the Binding affinity under setting [2] was determined as 30 Ru.

For the substance 6mer-1-1048 (RRCMMK), under setting [2], the Binding affinity was determined as 36 Ru.

As to 6mer-1-1049 (KKDHKK), the Binding affinity under setting [2] was found to be 31 Ru.

With 6mer-1-1050 (KKMEDR), the Binding affinity under setting [2] worked out at 38 Ru.

As to 6mer-1-1051 (KKKSFK), under setting [2], the Binding affinity was 43 Ru.

With 6mer-1-1052 (KRHWIR), under setting [2], the Binding affinity is listed as 33 Ru.

For the substance 6mer-1-1053 (RKYTPK), under setting [2], the Binding affinity is recorded as 27 Ru.

As for 6mer-1-1054 (RRMKVK), the Binding affinity under setting [2] was determined as 37 Ru.

On to 6mer-1-1055 (KRCNDK), for which the Binding affinity under setting [2] turned out to be 40 Ru.

6mer-1-1056 (RRNTAK): the Binding affinity under setting [2] worked out at 27 Ru.

On to 6mer-1-1057 (KRKPVR), for which the Binding affinity under setting [2] was 43 Ru.

Regarding 6mer-1-1058 (KRFPWR), the Binding affinity under setting [2] is listed as 21 Ru.

Regarding 6mer-1-1059 (RRETVK), the Binding affinity under setting [2] is 39 Ru.
